In PMC4734655:

Molecular target: recombinant human IL-8 (interleukin-8) (human)
Assay: SPR; Biacore; IL-8 immobilised on a CM5 chip by amine coupling (Fc2), BSA on the reference cell (Fc1); soluble recombinant Mtb proteins as analytes at 2.5, 5, 10 and 20 uM; 22 °C, PBS pH 7.4 with 0.005% P20; flow 5 ul/min; one-to-one model

recombinant M. tuberculosis rSahH (His-tagged, from pHis-sahH), sequence (P9WGV3 whole entry): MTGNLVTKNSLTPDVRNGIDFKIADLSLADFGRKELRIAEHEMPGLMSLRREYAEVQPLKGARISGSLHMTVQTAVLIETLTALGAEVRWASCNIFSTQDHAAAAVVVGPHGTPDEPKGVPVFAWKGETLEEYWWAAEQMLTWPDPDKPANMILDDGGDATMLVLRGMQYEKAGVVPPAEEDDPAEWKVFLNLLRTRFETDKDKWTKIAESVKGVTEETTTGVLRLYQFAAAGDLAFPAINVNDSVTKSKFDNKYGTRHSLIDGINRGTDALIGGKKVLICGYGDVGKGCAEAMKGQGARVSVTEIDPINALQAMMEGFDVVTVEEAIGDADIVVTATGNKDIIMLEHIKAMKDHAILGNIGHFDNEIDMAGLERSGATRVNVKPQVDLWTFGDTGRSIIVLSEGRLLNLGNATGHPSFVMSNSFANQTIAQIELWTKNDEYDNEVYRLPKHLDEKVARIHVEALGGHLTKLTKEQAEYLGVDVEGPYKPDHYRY

recombinant M. tuberculosis rSahH (His-tagged, from pHis-sahH) (from UniProt P9WGV3 1-495) (enzyme)
Kd: 714 pM
